The nature of this data set: soluble on expression in E. coli; label from the status in PepcDB or PDB records.
With “TADNNSMPHGAVSSYAKLVQNQTPEDILEEFPEIIPLQQRPNTRSSETSNDESGETCFSGHDEEQIKLMNENCIVLDWDDNAIGAGTKKVCHLMENIEKGLLHRAFSVFIFNEQGELLLQQRATEKITFPDLWTNTCCSHPLCIDDELGLKGKLDDKIKGAITAAVRKLDHELGIPEDETKTRGKFHFLNRIHYMAPSNEPWGEHEIDYILFYKINAKENLTVNPNVNEVRDFKWVSPNDLKTMFADPSYKFTPWFKIICENYLFNWWEQLDDLSEVENDRQIHRML”, the “soluble on expression in E. coli” value is given as “soluble”.
As to “TAPIAITCFTRGLDIRKEKADVLCPGGCPLEEFSVYGNIVYASVSSICGAAVHRGVISNSGGPVRVYSLPGRENYSSVDANGIQSQMLSRWSASFTVTLE”, the “soluble on expression in E. coli” value was “soluble”.
Consider “TATRVRPREYALRYPYMQVNRPGMVSWLVFDLDHANALAWDDAGLPAPNLMVRNRKSGHSQLFYAVPSVCTTENARTKPIQYMKAIYAAFAARLDADVDYHGGPVAKTPGHPWWETTEFHSHVYELGELASAVELTVKPWATGPKLDQVSHSRHCILFEQLRYFAYSIVNRERELGSFESFMRSLDAYAYNHNSFLKQGFSENLPLSSIRATVKSVGRWTWDRYTGDRRCHRGAMQLDGSLSLTERQSLAAKRTNELRH”, for which the “soluble on expression in E. coli” value is “not soluble”.
Take “TCSQPNNFPAEIPLYKQSFKNWAGDIKVDDVWTCAPRSADEVVKVANWAKDNGYKVRARGMMHNWSPLTLAAGVSCPAVVLLDTTRYLTAMSIDASGPVAKVTAQAGITMEALLTGLEKAGLGVTAAPAPGDLTLGGVLAINGHGTAIPAKGERRLAGASYGSISNLVLSLTAVVYDKASGAYALRKFARNDPQIAPLLAHVGRSLIVEATLQAAPNQRLRCQSWFNIPYGEMFAAAGSGGRTFASYLDSAGRVEAIWFPFTSNPWLKVWTVTPNKPLFSRQTDKPFNYPFSDNLPDEVTDLANKILSLGDGKLTPAFGKAQFAAASAGLVATASWDLWGWSKNLLLYVKPTTLRVTANGYAVLTRRENVQRVLNEFVTFYQARVQAYQQQGRYPMNGPVEIRVTGLDDPSEAALSGGVAPALSAIRPRPDHPEWNVAVWLDILTLPGTPYANQFYREIEQWIEANFNGSYAAVRPEWSKGWGYTDQAAWADSAMLQTTIPNAFRAGQPAAANWDAAKAALAAYDPYRLFSSPLLDSLGL”: the “soluble on expression in E. coli” value is “soluble”.
Consider “TDKVRQNEKQKRSKALAQTQVNKRLLNEHGLNTPPMMKDEADQFVVSPTNWAGIIDQALAPPRTRKSYQKSMVSISGTKAVIETRSSKN”, for which the “soluble on expression in E. coli” value is “not soluble”.
In the case of “TEQTNVLVLCAGGGTSGLLANALNKAAEEYHVPVKAAAGGYGAHMDIMKEYQLIILAPQVASNYEDIKQDTDRLGIKLAKTQGAEYIKLTRDGQAALDFVQQQFEN”, the “soluble on expression in E. coli” value was “not soluble”.
On to “TERFRLTLAQLNPTVGDLAGNAALARRAWDEARAAGSDMLALTEMFVTGYQTQDLVLRRAFVEEAMATIERLAADCAEGPAIGIGGPCLEDGRLMNAYWVLEGGRVSARVFKHHLPNAEVFDEKRVFSSGEVHGPCRVGPLRIGIPICEDSWHPDVCETLAETGAEILLVPNGSPYHREKLDVRVNLMVTRVVETGLPLVYLNMVGGQDDQVFDGASFVLNPHGRLMAQLPAFEEALVHVDFE”, for which the “soluble on expression in E. coli” value is on record as “not soluble”.
As for “TGKKAILRLSKRAMHLEWKLVKEIIFLGTSGFVMSVTNGFVQIVCNATLQRYGGDIYVGIMTVINSVREIVTMPVTGLTAASQPVIGYNYGAGCYQRVKSA”, the “soluble on expression in E. coli” value is “not soluble”.
As for “TIKRMECFDISHTMGSQTVASCVVFDENGPLKSDYRRFNIEGITGGDDYAGMEQALVKRYDKPLPIEKIPDIIFIDGGKGQLNRALQVFEKLTVAWDKHKPLLIGVAKGAERKAGLETLIIGRLKKEIHLPIDSPALHLIQHIRDESHHHAISGHRKKRQKA”, the “soluble on expression in E. coli” value is reported as “not soluble”.
As for “TKDFEWSSTINAAYQKDEIVELANGKQDDISNAWFIGESINVFYGTASDGLWQESDAAEMAKFNANGHKFEAGMVKPVDQDGNYIIDSNDRIILGNKNPKWVLGWSNTFNYKGLELGIELNGRFGYMVDTGGEGQYGMYNQREISYWTPDNTGADYQKPIYSTAGGDAYSSLLGFKDASFIKIRNISLGYNFNSKALKNIGISSLKLYAQAKNIGNLYSSVDFMDLDLGTTYYNRGFTFGLQVGF”, the “soluble on expression in E. coli” value is recorded as “not soluble”.
In the case of “TKDWNLDLTLNMSHNKNKVTKLVEEGRAQSAMDVVVQGSYADQVLAVGYPMGAFHGYEYAGIIQDQARIDELNAYAKSKGQSYYDGNSLKPGHLEIKDLNGDGIINYNDRVIIGNPDPDLFGGLTANLSYKQFSLFANFGYQIGGLKIYNKTLQNLPGQLTGLIDYGLNDRWSDTNKNAKYPALYIGDGVPRLTDHELFNASFFRLQEVRLTYNLPLNKVIKGQLFVSATNLFTLTSYPGTDPATVNSNSNYGGNYETSTYPGFRSFSAGLKINL” it was “not soluble”; in that of TPGDRTGTSKCRKAGCVYFGTPENKGFCTLCFIEY, “soluble”.
For the sequence “TPLSLTLDHWSEIRSRAHNLSVEIKKGPWRTFCASEWPTFDVGWPPEGTFDLTVIFEVKAIVFQDGPGSHPDQQPYITVWQDLVQNSPPWIK”, the “soluble on expression in E. coli” value is reported as “soluble”.
With “TPMRSPIIWINGPFGVGKTHTAHTLHERLPGSFVFEPEEMGQALRKLTPGFSGDPQEHPMWIPLMLDALQYASREAAGPLIVPVSISDTARHRRLMSGLKDRGLSVHHFTLIAPLNVVLERLRRDGQPQVNVGTVEDRLNELRGEQFQTHIDTAGLGTQQVAEQIAAQVGLTLAPPPQGALHW”, the “soluble on expression in E. coli” value is recorded as “soluble”.
The value for “TPVSEKQLAEVVANTVTPLMKAQSVPGMAVAVIYQGKPHYYTFGKADIAANKPVTPQTLFELGSISKTFTGVLGGDAIARGEISLDDPVTRYWPQLTGKQWQGIRMLDLATYTAGGLPLQVPDEVTDNASLLRFYQNWQPQWKPGTTRLYANASIGLFGALAVKPSGMPYEQAMTTRVLKPLKLDHTWINVPKAEEAHYAWGYRDGKAVRAVRVSPGMLDAQAYGVKTNVQDMANWVMANMAPENVADASLKQGIALAQSRYWRIGSMYQGLGWEMLNWPVEANTVVEGSDSKVALAPLPVAEVNPPAPPVKASWVHKTGSTGGFGSYVAFIPEKQIGIVMLANTSYPNPARVEAAYHILEALQ” was “soluble”.
Consider “TQEDVVVTLSHQGYVKYQPLSEYEAQRRGGKGKSAARIKEEDFIDRLLVANTHDHILCFSSRGRVYSMKVYQLPEATRGARGRPIVNLLPLEQDERITAILPVTEFEEGVKVFMATANGTVKKTVLTEFNRLRTAGKVAIKLVDGDELIGVDLTSGEDEVMLFSAEGKVVRFKESSVRAMGCNTTGVRGIRLGEGDKVVSLIVPRGDGAILTATQNGYGKRTAVAEYPTKSRATKGVISIKVTERNGLVVGAVQVDDCDQIMMITDAGTLVRTRVSEISIVGRNTQGVILIRTAEDENVVGLQRVAE”, for which the “soluble on expression in E. coli” value was “soluble”.
As to “TQQPQQDEMPSPTFLTQVKESLSSYWESAKTAAQNLYEKTYLPAVDEKLRDLYSKSTAAMSTYTGIFTDQVLSVLKGEE”, the “soluble on expression in E. coli” value was “soluble”.
For the sequence “TSGTLYLVPTPIGNLQDMTFRAVATLKEVDFICAEDTRNTGLLLKHFDIATKQISFHEHNAYEKIPDLIDLLISGRSLAQVSDAGMPSISDPGHDLVKAAIDSDIAVVALPGA”, the “soluble on expression in E. coli” value is listed as “not soluble”.
In the case of “TSPVNWDVTGTFSMNRTYMKKLPYNGRDKNRVQGGLVWDAKSGTYVETGGLAEGERIGGRWGYKYLGVYDTDEEAAKAPVDTKVSGSKMNKKKVAGDAIWADLDNNGVIDDKDITFIGWANPDKKGALINNLSYKNFSLRLVVDFALGHSIANIWRCRANANARNAIITTTDVTNGNIWWQTGDAATAKYPRYDVASDWDNGYRNHMRTIAYAGMNSNGNADNTAYYSKGDYLCFREVSLGYELPRSVCSKMKVKGVSLNAGVTNIGYITAFDGLNPEQYDGQETGEYFLPIQFNFGVRLTF” it was “not soluble”.
In the case of “TVVVSEAGASVYSASEFAANEFPNLDVSLRGAVSIARRLQDPLAELVKIEPKAIGVGQYQHDVNQTQLARKLDAVVEDCVNAVGVDLNTASAPLLARVAGMTKTLAQNIVEYRDENGRFESRSELKKVPRLGPKAFEQCAGFMRIANGKNPLDASGVHPEAYPVVEKILQATAQSIQDLMSNAGVVRQLDAKQFI” it was “not soluble”; in that of “VANKIKLGHVHLSGCTGCLVSTADNNLGFIKILDNYADLVYSLTLADVRHVPEMDVALVEGSVCIQDHESVEEIRETREKAKIVVALGSCACYGNITRFSRGGQHNQPQHESFLPIGDLIDVDVYIPGCPPSPELIRNVAVMAYMLLEGDEDQKALAGRYLKPLMD”, “not soluble”.
In the case of “VDNVFIVGHRKLDMDALGSAVGMQFFAGNIIENSFAVYNPDEMSPDIERAIERLQADGKTRLISVSQAMGLVTPRSLLVMVDHSKISLTLSKEFYEQFQNVIVVDHHRRDDDFPDNAILTFIESGASSAAELVTELIQFQNAKKCLNKIQASVLMAGIMLDTKNFSTRVTSRTFDVASYLRSKGSDSVEIQNISATD” it was “not soluble”; in that of “VEGLNPLIPQKSNRGVIDVAIFREYVSGGKDRAAEDRRRHRELVEESIKKNIGNIIAEESIIGQSKDKKIKIPIRSIKEYQFVYGKNGPSVGSGDGTEKRGEKIGEEKTANGGQGVGQAGNQEGEEIYETEITIEELINYLFDDLNLPDIDKKRIAEQESIRSYKNLGYQRKGIPPRLAKKRSVIEKIKRKQAYLRNSRELGDLDESAEEDIAAQETLDGVRKRFPFSEDDLRYRRVREDRKKDFNAVVICIMDVSGSMDQTKKYLARSFYFLLYQFIRLKYANVDVVFIAHTTTAKEVSEDEFFHRGESGGTYISSGYEKALEIIEQRYNPNSWNIYAFHCSDGDNWSEDNKKAVELGLKLCDVCNLFGYGEIVPGYYSTGSTIKDEFQKSIKRDNFSVITITNKDDVLPGLKKLLEKEGE”, “soluble”.
Take “VICHGDFAPYNVALNGNQTVGIFDFDTAHPAPRLWDIAYAVYCWAPFKTNEYDALGDLNSQSARAKLFCDSYGLSNAEREKL”: the “soluble on expression in E. coli” value is recorded as “not soluble”.
Consider “VKNFEWKTIFNWSKNNSMVESLPEGIDKIQIGSGVYNVKSYAEVGKPYGAIYAKTFKRDAEGYILCQLDGSPKEGQDYEYLGCVQADWRGGWNNVFRLGNFSFSVMFDFQKGGKFFSQTSIQSSVDGQSVKSLEGRDADFFSRKILGESDEERYGFMRPQNANTPTANGQIYPDWGRPKGVVLPNCRYDEDVEGLAGQQVLGYCTPERYWMHYTSRDISRFIYDASYVKLREITVSYDLPKKWLRKTPFQTFRVAAVGRNIATLFANTPHGLDPQATSTTGNAQGFERGFNLPSATYGFDIKVSF”, for which the “soluble on expression in E. coli” value was “not soluble”.
Regarding “VKVSKECEKIDIILTDGVIILGKIKGQIDSKSLHEHEKKPFSQSGTMNPETSRLLVNLSRPKKEVLDPFVGTGSILIEARWLNYECIGSDLDKAMLQKTKINLNYFNYYCSLLFSSATNLPFRQITSIATDPPYGRSTKNKGAELTQLYEEFFSSASETLTKGGFLVFATDSRFNFIDKLKENSFIIKGLHYLYSHKSLTRAIYVVQKK”, the “soluble on expression in E. coli” value is reported as “not soluble”.
On to “VLNHSIEVALLAGYMASELGLNADKARRGGLLHDIGKAVDQELEGSHTTIGAELARRYGEKEDIINMILSHHGEEEPMTP”, for which the “soluble on expression in E. coli” value was “not soluble”.
Take “VLPHARKVARETGIPEHFMIAQAALETGWGRHQIRRADNQPSFNLFGIKASGNWRGGVVETVTTEYVDGKPQKLREKFRTYDSYEDAFRDYAKLLQNNPRYAAVLKSRSATAFAWGLQQAGYATDPSYAEKLLKIINSDALSI”: the “soluble on expression in E. coli” value is “not soluble”.

The record behind these values is the DeepSol protein solubility set.
